Results reported in US20200087347 (published 2020).
Side-chain parts run from the residue outwards. [ ]: non-standard residue; d: D form. NMeK = CN[C@@H](CCCCN)C(=O)O; BDPFL = dye

T1: integrin αvβ8 (human, UniProt P06756)
T1 chain 1: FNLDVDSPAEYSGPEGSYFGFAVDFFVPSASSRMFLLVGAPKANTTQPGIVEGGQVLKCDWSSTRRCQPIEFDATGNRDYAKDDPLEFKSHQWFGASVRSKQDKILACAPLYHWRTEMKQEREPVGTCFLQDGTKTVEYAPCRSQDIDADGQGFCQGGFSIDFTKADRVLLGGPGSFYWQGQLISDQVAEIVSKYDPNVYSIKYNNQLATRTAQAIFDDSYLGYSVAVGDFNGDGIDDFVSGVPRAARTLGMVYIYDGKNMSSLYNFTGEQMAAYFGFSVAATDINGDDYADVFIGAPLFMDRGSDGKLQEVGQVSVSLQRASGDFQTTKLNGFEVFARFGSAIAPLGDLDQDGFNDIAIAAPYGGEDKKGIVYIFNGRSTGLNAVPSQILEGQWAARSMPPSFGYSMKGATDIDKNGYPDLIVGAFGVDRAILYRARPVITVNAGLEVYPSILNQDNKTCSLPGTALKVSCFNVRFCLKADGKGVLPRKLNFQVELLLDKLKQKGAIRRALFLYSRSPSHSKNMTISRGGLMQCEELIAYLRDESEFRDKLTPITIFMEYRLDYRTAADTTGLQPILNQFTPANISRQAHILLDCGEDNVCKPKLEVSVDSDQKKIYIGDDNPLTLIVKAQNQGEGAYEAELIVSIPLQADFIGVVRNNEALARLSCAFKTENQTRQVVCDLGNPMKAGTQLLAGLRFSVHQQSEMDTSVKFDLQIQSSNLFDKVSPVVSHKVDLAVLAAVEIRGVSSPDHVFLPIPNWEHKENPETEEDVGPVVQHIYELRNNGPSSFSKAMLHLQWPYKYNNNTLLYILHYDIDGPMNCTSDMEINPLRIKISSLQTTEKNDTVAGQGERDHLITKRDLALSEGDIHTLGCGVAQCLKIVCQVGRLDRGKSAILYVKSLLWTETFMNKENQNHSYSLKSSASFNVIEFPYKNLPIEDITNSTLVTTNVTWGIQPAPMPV
T1 chain 2: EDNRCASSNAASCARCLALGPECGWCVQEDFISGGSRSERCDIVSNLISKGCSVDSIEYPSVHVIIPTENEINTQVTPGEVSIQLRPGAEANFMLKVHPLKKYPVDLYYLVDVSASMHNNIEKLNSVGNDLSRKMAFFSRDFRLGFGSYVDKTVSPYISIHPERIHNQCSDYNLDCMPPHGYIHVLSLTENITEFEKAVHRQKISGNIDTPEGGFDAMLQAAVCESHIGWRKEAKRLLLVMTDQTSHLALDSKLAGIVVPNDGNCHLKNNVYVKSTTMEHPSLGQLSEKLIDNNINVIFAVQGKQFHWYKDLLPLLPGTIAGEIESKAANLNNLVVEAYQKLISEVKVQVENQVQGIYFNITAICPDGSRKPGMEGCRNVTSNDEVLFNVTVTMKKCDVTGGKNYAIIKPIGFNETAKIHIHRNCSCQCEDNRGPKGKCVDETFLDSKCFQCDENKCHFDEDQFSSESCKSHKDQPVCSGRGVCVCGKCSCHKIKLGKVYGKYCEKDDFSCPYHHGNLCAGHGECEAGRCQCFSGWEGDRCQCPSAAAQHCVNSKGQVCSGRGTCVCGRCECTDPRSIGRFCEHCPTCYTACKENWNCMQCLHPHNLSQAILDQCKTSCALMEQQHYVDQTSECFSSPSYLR

T2: integrin αvβ6 (human, UniProt P06756)
T2 chain 1: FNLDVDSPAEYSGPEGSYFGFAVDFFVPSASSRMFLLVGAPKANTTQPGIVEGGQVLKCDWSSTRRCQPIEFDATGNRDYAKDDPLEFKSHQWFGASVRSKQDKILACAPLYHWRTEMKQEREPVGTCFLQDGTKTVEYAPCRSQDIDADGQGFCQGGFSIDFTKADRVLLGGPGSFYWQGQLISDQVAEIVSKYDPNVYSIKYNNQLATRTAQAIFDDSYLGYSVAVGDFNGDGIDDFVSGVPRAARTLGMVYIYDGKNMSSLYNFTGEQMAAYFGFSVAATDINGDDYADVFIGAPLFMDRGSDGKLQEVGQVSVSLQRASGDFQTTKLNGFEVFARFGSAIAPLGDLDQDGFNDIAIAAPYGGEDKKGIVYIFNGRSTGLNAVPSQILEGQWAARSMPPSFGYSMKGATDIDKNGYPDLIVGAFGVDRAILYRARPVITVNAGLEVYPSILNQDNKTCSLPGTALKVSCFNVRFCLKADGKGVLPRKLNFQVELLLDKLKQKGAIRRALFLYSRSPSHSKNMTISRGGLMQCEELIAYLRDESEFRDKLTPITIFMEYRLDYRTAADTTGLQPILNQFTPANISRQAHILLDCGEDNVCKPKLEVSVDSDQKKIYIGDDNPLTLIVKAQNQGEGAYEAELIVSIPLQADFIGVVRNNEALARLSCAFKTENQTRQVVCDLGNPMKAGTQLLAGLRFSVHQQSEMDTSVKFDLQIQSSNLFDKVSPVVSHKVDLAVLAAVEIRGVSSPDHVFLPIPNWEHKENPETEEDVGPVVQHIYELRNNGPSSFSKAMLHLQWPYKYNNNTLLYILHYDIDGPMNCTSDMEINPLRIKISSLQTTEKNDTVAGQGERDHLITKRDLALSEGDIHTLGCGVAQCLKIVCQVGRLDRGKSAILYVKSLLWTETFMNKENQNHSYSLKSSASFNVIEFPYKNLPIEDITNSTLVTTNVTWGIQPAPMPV
T2 chain 2: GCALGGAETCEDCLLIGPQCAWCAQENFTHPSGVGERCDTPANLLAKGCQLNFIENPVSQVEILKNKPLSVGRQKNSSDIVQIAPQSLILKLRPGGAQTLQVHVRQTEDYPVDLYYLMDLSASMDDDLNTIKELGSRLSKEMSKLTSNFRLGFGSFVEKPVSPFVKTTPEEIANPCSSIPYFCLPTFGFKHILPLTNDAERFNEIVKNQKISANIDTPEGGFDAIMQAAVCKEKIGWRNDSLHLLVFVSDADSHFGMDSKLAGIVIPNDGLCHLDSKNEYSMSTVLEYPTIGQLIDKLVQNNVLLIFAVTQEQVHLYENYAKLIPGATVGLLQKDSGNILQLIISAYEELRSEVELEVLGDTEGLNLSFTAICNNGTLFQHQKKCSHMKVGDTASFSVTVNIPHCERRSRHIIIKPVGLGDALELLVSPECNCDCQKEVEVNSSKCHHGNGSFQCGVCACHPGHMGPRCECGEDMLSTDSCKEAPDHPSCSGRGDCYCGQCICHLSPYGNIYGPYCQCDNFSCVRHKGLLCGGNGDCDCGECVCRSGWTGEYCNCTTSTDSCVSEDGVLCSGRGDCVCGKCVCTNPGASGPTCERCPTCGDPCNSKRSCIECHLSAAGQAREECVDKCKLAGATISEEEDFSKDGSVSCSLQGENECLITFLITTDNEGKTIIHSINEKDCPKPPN

T3: integrin αvβ5 (human, UniProt P06756)
T3 chain 1: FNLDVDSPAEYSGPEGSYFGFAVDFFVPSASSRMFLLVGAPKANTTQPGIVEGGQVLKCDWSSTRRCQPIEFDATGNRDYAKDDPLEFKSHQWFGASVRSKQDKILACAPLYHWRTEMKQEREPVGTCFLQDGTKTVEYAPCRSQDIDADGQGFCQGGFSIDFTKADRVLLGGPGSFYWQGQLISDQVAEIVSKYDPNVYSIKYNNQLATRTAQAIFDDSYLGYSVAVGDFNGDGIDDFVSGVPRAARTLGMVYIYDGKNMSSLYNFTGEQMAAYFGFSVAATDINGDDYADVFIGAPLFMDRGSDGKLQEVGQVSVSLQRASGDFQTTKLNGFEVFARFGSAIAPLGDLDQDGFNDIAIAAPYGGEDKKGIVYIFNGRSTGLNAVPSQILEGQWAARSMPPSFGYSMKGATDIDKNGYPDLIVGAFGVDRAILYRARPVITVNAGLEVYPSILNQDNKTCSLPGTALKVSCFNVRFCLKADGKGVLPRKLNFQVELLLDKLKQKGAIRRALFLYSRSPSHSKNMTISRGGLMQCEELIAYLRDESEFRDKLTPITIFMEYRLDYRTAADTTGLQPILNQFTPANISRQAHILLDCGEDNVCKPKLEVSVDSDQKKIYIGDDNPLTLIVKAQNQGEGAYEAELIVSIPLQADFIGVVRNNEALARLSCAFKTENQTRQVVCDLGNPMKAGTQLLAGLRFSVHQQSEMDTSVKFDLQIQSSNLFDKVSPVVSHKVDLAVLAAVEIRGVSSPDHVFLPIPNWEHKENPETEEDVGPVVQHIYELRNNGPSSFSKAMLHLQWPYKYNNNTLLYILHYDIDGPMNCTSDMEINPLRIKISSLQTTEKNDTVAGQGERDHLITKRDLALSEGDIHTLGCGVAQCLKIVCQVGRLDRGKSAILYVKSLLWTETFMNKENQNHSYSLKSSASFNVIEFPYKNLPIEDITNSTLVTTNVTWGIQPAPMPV
T3 chain 2: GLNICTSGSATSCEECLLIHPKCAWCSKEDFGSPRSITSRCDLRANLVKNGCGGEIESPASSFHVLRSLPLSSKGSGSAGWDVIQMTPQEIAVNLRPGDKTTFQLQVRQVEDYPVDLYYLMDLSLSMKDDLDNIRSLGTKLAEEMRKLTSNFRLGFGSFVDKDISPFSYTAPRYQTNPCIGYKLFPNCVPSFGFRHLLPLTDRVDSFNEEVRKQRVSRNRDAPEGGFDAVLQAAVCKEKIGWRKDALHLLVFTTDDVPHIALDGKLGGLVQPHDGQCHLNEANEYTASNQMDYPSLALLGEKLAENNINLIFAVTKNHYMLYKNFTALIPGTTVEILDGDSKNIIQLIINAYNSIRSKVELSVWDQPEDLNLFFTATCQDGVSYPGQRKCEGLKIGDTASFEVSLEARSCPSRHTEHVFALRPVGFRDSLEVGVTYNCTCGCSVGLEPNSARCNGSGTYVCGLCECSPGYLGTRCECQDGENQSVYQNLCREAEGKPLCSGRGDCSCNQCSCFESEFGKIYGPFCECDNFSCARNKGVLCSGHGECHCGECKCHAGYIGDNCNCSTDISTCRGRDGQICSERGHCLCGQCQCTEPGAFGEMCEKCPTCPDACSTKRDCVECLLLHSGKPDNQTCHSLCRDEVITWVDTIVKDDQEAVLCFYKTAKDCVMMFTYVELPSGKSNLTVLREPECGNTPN

T4: integrin αvβ3 (human, UniProt P06756)
T4 chain 1: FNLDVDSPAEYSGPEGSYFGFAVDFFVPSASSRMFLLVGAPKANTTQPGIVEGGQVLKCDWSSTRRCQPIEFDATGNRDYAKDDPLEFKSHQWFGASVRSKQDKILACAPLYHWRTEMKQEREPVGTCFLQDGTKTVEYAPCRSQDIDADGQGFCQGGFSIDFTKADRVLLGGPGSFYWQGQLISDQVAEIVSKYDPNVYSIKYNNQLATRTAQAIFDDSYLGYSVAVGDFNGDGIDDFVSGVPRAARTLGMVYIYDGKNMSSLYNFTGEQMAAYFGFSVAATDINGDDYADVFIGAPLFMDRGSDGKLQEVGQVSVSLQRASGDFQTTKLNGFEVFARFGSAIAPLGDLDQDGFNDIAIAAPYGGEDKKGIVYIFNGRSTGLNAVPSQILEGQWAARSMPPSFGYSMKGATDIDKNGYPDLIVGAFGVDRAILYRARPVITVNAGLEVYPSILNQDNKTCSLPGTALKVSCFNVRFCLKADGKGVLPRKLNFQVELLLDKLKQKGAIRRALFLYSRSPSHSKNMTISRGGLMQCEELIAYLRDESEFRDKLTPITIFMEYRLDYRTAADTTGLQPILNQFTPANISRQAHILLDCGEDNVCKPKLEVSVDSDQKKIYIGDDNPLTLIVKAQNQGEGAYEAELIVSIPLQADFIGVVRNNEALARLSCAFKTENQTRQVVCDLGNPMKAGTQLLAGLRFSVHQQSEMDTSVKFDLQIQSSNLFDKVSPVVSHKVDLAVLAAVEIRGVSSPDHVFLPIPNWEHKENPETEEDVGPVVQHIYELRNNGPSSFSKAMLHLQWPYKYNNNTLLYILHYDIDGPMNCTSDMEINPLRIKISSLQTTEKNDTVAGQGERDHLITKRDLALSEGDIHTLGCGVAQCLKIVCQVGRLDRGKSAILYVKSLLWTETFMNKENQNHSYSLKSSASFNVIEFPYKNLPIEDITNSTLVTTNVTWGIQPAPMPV
T4 chain 2: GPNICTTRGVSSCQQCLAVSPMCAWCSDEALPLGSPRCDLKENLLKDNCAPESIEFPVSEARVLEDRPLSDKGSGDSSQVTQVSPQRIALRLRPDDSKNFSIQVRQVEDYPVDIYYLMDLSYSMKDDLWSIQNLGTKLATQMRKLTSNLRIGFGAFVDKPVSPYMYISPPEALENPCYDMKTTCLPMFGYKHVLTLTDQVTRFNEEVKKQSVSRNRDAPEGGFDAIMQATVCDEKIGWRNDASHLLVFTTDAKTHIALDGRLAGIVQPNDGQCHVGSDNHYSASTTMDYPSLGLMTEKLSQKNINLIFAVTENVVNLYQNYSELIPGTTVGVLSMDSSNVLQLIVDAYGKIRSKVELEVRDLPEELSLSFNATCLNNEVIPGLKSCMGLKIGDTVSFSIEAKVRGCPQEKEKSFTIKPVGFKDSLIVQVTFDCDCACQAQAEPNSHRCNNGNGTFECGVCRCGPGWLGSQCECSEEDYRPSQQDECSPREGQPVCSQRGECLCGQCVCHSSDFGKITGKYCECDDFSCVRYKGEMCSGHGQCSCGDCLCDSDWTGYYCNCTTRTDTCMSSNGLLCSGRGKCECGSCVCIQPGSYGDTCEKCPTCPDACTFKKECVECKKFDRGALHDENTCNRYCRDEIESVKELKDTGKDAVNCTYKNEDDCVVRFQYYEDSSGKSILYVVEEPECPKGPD


Assays:
Assay in all cases: competition
integrin αvβ8 = biological target: T1, integrin αvβ8
integrin αvβ6 = biological target: T2, integrin αvβ6
integrin αvβ5 = biological target: T3, integrin αvβ5
integrin α5β1 = integrin α5β1 (human, UniProt P08648)
integrin αvβ3 = biological target: T4, integrin αvβ3
integrin αIIbβ3 = integrin αIIbβ3 (human, UniProt P08514)

Sequence of integrin α5β1 (P08648 42-1049, chain 1 of 2): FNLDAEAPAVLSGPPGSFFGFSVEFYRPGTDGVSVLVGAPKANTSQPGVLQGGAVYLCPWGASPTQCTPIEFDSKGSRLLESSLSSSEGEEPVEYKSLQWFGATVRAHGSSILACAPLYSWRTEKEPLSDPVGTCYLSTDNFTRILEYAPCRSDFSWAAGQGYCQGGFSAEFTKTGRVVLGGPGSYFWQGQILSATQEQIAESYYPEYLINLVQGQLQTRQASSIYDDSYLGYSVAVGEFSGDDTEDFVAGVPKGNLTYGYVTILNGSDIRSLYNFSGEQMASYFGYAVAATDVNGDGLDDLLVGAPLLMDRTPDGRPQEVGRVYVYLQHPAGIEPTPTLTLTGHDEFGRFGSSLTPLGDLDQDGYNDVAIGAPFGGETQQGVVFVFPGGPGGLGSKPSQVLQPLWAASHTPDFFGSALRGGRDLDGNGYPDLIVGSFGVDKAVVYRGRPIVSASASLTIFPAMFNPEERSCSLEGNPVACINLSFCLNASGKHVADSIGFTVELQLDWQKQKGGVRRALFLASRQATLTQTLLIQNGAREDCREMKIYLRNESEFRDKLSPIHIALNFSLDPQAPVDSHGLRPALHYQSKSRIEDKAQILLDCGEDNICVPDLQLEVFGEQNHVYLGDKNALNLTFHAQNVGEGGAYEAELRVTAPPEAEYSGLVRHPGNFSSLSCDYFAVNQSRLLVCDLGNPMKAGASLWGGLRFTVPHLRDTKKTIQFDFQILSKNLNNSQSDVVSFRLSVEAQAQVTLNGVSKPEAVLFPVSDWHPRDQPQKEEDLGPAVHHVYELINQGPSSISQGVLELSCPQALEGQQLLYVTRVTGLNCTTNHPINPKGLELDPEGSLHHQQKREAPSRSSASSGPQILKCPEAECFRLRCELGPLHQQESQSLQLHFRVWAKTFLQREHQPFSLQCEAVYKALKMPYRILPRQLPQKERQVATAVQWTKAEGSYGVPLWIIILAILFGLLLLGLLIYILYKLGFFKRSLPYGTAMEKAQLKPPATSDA
Sequence of integrin α5β1 (chain, as listed by the source, chain 2 of 2): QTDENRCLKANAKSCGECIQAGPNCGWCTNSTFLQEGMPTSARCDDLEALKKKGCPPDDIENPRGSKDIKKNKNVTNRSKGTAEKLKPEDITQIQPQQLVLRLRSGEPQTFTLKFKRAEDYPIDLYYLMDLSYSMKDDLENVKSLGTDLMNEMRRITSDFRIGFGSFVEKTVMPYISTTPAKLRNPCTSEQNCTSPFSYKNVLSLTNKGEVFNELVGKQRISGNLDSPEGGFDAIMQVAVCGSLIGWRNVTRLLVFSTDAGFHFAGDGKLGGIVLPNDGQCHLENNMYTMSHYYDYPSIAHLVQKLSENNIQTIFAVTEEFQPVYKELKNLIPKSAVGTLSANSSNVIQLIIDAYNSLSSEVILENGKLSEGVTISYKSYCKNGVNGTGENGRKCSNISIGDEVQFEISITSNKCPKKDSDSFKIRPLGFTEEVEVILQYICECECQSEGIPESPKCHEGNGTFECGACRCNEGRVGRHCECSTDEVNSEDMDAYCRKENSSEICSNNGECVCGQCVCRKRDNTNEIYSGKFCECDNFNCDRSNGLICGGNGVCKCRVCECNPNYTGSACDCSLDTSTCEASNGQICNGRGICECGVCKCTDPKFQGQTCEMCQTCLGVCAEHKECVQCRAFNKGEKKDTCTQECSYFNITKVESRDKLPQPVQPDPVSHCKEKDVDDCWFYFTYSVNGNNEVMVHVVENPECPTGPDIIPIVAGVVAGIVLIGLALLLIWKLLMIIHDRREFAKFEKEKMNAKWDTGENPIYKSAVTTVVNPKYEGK

Binder | IC50 (integrin αvβ8) [nM] | IC50 (integrin αvβ6) [nM] | IC50 (integrin αvβ5) [nM] | IC50 (integrin α5β1) [nM] | IC50 (integrin αvβ3) [nM] | IC50 (integrin αIIbβ3) [nM]
cyclo(RGDL[dP][NMeK]([Gly-Pro-Pro-Pro-Pro-Pro-Pro-Gly-BDPFL])GL) [Compound 9f (9-G(P)6G-BDPFL)] | 7.98 | 453 | > 10000 | 782 | 42 | –
cyclo(RGD[dF]K) [Compound 12 (Table 3) c(RGDfK)] | – | – | – | 141 | – | > 10000
